{
  "source": "patent US10233249B2",
  "about": "“Antibodies and methods for treating estrogen receptor-associated diseases” (BEIJING SHENOGEN PHARMA GROUP LTD., priority 2013, dated 2019)",
  "key": {"[1]": {"target": "T1, ER-α36 expressed on cell surfaces of K562 cells (Homo sapiens, UniProt P03372)", "T1 construct": "endogenous in cells; host or cells: K562, MCF7, SKBR3, MHCC97H", "T1 sequence (P03372 1-310 isoform P03372-4)": "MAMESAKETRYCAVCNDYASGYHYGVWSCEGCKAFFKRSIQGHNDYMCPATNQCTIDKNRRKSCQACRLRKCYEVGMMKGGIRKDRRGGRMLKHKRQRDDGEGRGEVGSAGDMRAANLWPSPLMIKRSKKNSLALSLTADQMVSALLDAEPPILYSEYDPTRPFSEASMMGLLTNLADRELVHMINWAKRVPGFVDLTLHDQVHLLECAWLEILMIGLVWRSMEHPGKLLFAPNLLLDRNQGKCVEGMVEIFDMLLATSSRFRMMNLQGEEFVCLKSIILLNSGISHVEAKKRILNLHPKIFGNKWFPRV", "experiment": "FACS analysis of binding to cell surface ER-α36", "settings": "100, 20, 4, 0.8, 0.16, 0.032 μg/ml; mouse IgG2b isotype control", "procedure": "(§1) Also examined were the binding of SNGmB1 to a series of human cancer cell lines including K-562 cell, a cell line derived from chronic myeloid leukemia patient; MCF7: a breast cancer cell line expressing both ER-α66 and ER-α36; SKBR3 (ATCC): a breast cancer cell line expressing high levels of HER2; and MHCC97H (ATCC): a highly metastatic hepatocellular carcinoma cell line.\n(§2) These cell lines (K562, MCF7, SKBR3, MHCC97H) were cultured in their respective medium to 90% confluence and then the cells were washed with PBS, followed by pretreatment with 0.5 mM EDTA (adherent cell lines) to facilitate removal from substrate. The cells are then collected and centrifuged at 2500 rpm for 5 minutes at 4° C. After counting the cell number, the cells were then resuspended in the block buffer (10% normal goat serum, Invitrogen) to a final concentration of 5-10×10^6 cells/ml, and 100 μl of cells (5×10^5) were transferred to a 1.5 ml EP tube for staining. All those tubes (cells in block buffer) were then laid in a revolver (Grant) for 30 minutes at 4° C. After that the cells were centrifuged at 2500 rpm for 5 minutes at 4° C., the supernatant was discarded, 100 μl of the primary antibody was then added to (1-30 μg/ml final concentration, SNGmB1 or mouse IgG2b isotope control) and incubated in a revolver at 4° C. for 1 hr. The cells were then collected by centrifugation at 2500 rpm for 5 minutes at 4° C. and washed 2 times with PBS solution. The goat anti mouse IgG (H+L) FITC secondary antibody (Invitrogen) were then added at a dilution range of 1:400-800 followed by incubation in a revolver at 4° C. for 1 hr and kept in dark. Following this incubation, free antibody was the removed by washing the cells twice with PBS and the cells were then fixed in 1% paraformaldehyde at room temperature for 10 min and before resuspending the cells in 200-400 μl PBS with 5 μl 7-AAD (BD Biosciences) added for final flow cytometric analysis.\n(§3) In FIG. 5A, the “Geom. Mean” refers to Geometric mean fluorescence intensity. […] The cell line was incubated with the SNGmB1 antibody and the binding was tested, according to the similar procedure described above. Mouse IgG2b was used as isotype control."}, "[2]": {"target": "T2, ER-α36 expressed on cell surfaces of MCF7 cells (Homo sapiens, UniProt P03372)", "T2 construct": "endogenous in cells; host or cells: K562, MCF7, SKBR3, MHCC97H", "T2 sequence (P03372 1-310 isoform P03372-4)": "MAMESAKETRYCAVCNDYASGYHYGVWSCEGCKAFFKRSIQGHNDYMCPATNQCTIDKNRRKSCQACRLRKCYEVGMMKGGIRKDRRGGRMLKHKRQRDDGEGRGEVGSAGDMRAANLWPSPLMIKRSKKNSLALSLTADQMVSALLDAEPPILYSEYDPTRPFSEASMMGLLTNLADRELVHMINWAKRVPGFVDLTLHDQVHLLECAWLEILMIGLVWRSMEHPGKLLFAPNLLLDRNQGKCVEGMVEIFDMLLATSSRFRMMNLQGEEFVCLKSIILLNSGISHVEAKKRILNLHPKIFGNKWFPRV", "experiment": "FACS analysis of binding to cell surface ER-α36", "settings": "mouse IgG2b isotype control", "procedure": "as §1, §2, §3"}, "[3]": {"target": "T3, ER-α36 expressed on cell surfaces of MHCC97H cells (Homo sapiens, UniProt P03372)", "T3 construct": "endogenous in cells; host or cells: K562, MCF7, SKBR3, MHCC97H", "T3 sequence (P03372 1-310 isoform P03372-4)": "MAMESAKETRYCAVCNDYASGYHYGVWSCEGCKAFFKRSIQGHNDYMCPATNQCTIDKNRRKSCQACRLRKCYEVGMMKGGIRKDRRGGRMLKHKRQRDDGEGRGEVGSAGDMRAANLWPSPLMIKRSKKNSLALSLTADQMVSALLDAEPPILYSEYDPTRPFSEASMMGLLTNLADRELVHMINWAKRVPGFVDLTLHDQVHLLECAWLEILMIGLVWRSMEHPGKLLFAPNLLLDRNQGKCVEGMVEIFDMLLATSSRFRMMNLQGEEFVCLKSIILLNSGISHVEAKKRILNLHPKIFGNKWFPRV", "experiment": "FACS analysis of binding to cell surface ER-α36", "settings": "mouse IgG2b isotype control", "procedure": "as §1, §2, §3"}, "[4]": {"target": "T4, ER-α36 expressed on cell surfaces of SKBR3 cells (Homo sapiens, UniProt P03372)", "T4 construct": "endogenous in cells; host or cells: K562, MCF7, SKBR3, MHCC97H", "T4 sequence (P03372 1-310 isoform P03372-4)": "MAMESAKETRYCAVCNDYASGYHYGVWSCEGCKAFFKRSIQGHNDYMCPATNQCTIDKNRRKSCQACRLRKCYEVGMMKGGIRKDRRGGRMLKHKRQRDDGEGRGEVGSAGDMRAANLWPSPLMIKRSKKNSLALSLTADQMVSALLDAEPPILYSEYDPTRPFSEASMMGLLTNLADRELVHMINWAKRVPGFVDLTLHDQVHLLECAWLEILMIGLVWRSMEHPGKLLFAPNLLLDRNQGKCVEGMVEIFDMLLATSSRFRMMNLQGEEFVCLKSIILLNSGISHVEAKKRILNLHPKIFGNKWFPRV", "experiment": "FACS analysis of binding to cell surface ER-α36", "settings": "mouse IgG2b isotype control", "procedure": "as §1, §2, §3"}, "[5]": {"target": "T5, membrane bound ER-α36 protein in MCF-7 cells (Homo sapiens, UniProt P03372)", "T5 construct": "endogenous in cells; host or cells: MCF7", "T5 sequence (P03372 1-310 isoform P03372-4)": "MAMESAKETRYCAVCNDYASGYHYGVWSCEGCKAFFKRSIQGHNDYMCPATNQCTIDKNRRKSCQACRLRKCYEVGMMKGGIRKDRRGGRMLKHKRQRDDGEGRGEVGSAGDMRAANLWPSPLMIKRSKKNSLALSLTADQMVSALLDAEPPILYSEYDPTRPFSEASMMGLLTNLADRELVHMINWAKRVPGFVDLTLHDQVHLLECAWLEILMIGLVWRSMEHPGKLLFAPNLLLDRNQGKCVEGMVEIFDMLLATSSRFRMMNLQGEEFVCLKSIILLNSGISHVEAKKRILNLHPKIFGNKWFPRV", "experiment": "Immunofluorescence analysis of MCF-7 mammosphere", "assay_type": "cell-based", "procedure": "The ability of SNGmB1 to detect membrane bound ER-α36 protein in MCF-7 cells was assessed using immunostaining. MCF-7 mammosphere was formed and immunostaining was performed by steps as follows:\n1. MCF-7 cells were cultured in DMEM without phenol red for 2 days and stained with 7-aminoactinomycin D (7-AAD) followed by FACS sorting. The sorted cells were cultured in DMEM/F12 without phenol red medium (Gibo) with B27 (Invitrogen), EGF (BD Biosciences) and bFGF (BD Biosciences) for 6 days and the MCF-7 mammosphere was formed. 2. MCF-7 mammosphere was centrifuged at 1000 rpm for 4 min, and the supernatant was removed. 3. The mammosphere was washed with 500 μl PBS and was transferred to a 1.5 ml EP tube before centrifugation at 1000 rpm for 4 min, and the supernatant was discarded. 4. The precipitate was fixed with 500 μl paraformaldehyde (4%) for 20 min (or overnight), and was centrifuged at 1000 rpm for 4 min to move the supernatant. 5. The precipitate was washed with 500 μl PBS and centrifuged at 1000 rpm for 4 min, and the supernatant was discarded, wash three times using PBS. 6. The supernatant was removed and the precipitate was incubated with 50 μl goat serum blocking solution at 37° C. for 30 min; after centrifugation at 1000 rpm for 4 min, the supernatant was discarded. 7. […] The mammospheres was transferred to small observation dish, and stored at 4° C. to be detected."}, "ER-α36": {"target": "T6, ER-α36 (Homo sapiens, UniProt P03372)", "T6 sequence (P03372 284-310 isoform P03372-4)": "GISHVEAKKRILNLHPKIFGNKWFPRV", "experiment": "Biacore binding affinity of chimeric and humanized antibodies (Example 9)", "procedure": "The humanized antibodies were purified and characterized using ELISA and Biacore for binding analysis.\nThe humanized antibodies were tested for their binding affinity to ER-α36."}, "[6]": {"target": "T7, biotinylated GV27 peptide (ER-α36) (Homo sapiens, UniProt P03372)", "T7 sequence (P03372 284-310 isoform P03372-4 limits assumed)": "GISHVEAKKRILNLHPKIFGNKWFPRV", "experiment": "Competition ELISA", "assay_type": "binding", "procedure": "The antigen (biotinylated GV27 peptide) was added along with different amount of the competing mouse antibody, the ELISA plates were then allowed to incubate for equilibrium before wash. Streptavidin-HRP (Sigma, S2438, 1:5000) and TMB substrate (Biopanda, China) were added and OD450 was measured on a plate reader. IgG were tested in parallel as control antibody."}},
  "note": "Entries after “also recorded” stand apart in the source; their conditions may differ.",
  "data": [
    {"molecule": "SNGmB1: mouse monoclonal anti-ER-α36 antibody (mIgG2b), light chain SEQ ID NO: 16, heavy chain SEQ ID NO: 18 (antibody, listed as Mus musculus) heavy: QAYLQQSGAELVRPGASVKMSCKASGYTFTSHNMHWIKQTPRQGLEWIGAIHPVNGDTAYNQKFKGKATLTVDKSSSTAYLQLSSLTSEESAVYFCAREGYGSVDYWGQGTTLTVSSAKTTPPSVYPLAPGCGDTTGSSVTLGCLVKGYFPESVTVTWNSGSLSSSVHTFPALLQSGLYTMSSSVTVPSSTWPSQTVTCSVAHPASSTTVDKKLEPSGPISTINPCPPCKECHKCPAPNLEGGPSVFIFPPNIKDVLMISLTPKVTCVVVDVSEDDPDVQISWFVNNVEVHTAQTQTHREDYNSTIRVVSTLPIQHQDWMSGKEFKCKVNNKDLPSPIERTISKIKGLVRAPQVYILPPPAEQLSRKDVSLTCLVVGFNPGDISVEWTSNGHTEENYKDTAPVLDSDGSYFIYSKLNMKTSKWEKTDSFSCNVRHEGLKNYYLKKTISRSPGK light: ETTVTQSPASLSMTIGEKVTIRCITSTDIDDDMNWYRKKPGQPPKLLISEGNTLRPGVPSRFSSSGYGTDFVFTIENMLSEDVADYYCLQSDNLPLTFGAGTKLELKRADAAPTVSIFPPSSEQLTSGGASVVCFLNNFYPKDINVKWKIDGSERQNGVLNSWTDQDSKDSTYSMSSTLTLTKDEYERHNSYTCEATHKTSTSPIVKSFNRNEC", "values": [
      {"measurement": "binding to K562 cells (FACS)", "setting": "[1]", "result": "dose-dependent binding"},
      {"measurement": "binding to MCF7 cells (FACS)", "setting": "[2]", "result": "specific binding"},
      {"measurement": "binding to MHCC97H cells (FACS)", "setting": "[3]", "result": "specific binding"},
      {"measurement": "binding to SKBR3 cells (FACS)", "setting": "[4]", "result": "specific binding"},
      {"measurement": "immunostaining of membrane bound ER-α36 on MCF-7 mammospheres", "setting": "[5]", "result": "stained the MCF-7 mammospheres in a dose-dependent manner; also recorded: can detect membrane bound ER-α36 on MCF7"},
      {"measurement": "Ka", "setting": "ER-α36; listed as SNGmB1-20110709(IgG2b)", "result": "2.12e+06", "unit": "M⁻¹ s⁻¹"},
      {"measurement": "Ka", "setting": "ER-α36; listed as SNGmB1-20111117(IgG2b)", "result": "1.76e+06", "unit": "M⁻¹ s⁻¹"},
      {"measurement": "competition with SNGmB1 antibody for binding to GV27 peptide / ER-α36", "setting": "[6]", "result": "compete against SNGmB1 antibody"}
    ]}
  ]
}
